Our source for the Fold diff values is patent publication US20220332804A1 (CSL INNOVATION, published 2022).

Common to all, as to experiment: SPR; KD relative to WT C2;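 further: biacore SPR at 37 °C, anti-C2 mAbs captured on an anti-human IgG chip, alanine or serine C2 surface mutants tested, KD from 1:1 fit compared with wild-type C2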
In general terms: SPR reads the build-up and loss of mass on a sensor chip optically.

One assay concerns the target T1, human C2 I438A (human, UniProt P06681 21-752).
T1 sequence: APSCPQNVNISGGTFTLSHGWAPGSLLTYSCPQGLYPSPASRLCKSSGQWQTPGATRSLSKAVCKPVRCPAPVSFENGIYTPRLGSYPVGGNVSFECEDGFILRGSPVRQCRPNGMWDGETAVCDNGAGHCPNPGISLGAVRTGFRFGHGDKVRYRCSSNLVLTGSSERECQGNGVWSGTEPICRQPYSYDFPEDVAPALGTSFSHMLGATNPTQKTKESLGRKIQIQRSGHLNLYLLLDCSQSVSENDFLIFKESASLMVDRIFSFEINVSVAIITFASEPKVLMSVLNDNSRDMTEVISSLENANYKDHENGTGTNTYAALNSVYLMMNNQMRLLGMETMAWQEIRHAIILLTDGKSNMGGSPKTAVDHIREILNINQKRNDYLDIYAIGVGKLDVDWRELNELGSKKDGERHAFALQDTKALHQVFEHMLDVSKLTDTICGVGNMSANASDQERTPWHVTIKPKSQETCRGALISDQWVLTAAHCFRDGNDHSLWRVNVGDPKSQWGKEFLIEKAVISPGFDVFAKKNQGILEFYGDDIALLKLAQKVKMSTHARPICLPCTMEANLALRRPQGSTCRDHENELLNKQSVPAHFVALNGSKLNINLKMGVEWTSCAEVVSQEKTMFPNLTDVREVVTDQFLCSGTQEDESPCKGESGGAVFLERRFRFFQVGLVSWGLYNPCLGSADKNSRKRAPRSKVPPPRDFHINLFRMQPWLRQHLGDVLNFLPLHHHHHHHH

The target in the next assay is T2, human C2 K415A (human, UniProt P06681 21-752).
T2 sequence: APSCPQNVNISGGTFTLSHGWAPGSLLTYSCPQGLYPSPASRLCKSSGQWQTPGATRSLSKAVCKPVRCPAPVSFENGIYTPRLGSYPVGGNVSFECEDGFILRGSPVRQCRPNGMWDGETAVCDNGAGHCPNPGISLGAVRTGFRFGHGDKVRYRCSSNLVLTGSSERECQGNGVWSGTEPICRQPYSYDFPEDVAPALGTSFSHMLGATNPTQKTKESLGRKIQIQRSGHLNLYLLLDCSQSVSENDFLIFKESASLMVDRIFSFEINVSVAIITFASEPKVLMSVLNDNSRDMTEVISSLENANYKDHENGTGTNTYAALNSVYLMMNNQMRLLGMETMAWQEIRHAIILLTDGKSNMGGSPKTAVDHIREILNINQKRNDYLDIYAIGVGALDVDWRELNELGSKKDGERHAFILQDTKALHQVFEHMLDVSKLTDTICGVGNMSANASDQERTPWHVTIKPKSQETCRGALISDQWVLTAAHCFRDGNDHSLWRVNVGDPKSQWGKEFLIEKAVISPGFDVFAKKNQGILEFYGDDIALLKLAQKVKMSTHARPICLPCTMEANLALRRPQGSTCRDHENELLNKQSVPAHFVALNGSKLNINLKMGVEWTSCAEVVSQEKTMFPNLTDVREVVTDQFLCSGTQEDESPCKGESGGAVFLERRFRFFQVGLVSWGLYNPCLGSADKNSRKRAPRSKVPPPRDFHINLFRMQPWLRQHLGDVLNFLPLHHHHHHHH

The target of the next assay is T3, human C2 S456A (human, UniProt P06681 21-752).
T3 sequence: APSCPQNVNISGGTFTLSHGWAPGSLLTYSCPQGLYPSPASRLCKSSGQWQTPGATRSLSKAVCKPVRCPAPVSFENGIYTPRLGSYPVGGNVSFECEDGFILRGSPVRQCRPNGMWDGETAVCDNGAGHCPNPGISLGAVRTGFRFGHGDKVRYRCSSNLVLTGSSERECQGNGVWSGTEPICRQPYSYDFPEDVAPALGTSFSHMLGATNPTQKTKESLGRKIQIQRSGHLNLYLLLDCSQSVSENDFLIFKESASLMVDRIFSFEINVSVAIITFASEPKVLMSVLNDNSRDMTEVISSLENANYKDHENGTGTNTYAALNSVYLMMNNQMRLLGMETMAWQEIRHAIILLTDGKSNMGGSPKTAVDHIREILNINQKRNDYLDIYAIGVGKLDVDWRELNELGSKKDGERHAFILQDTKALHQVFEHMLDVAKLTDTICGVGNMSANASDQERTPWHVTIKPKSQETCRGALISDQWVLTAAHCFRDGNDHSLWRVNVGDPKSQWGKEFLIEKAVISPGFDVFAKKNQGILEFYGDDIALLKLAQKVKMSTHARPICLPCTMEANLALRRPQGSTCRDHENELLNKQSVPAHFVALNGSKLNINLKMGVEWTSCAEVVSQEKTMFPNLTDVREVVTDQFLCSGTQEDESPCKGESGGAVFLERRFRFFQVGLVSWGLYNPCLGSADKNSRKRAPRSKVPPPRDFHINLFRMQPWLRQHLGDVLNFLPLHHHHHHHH

In the next assay the target is T4, human C2 G414A (human, UniProt P06681 21-752).
T4 sequence: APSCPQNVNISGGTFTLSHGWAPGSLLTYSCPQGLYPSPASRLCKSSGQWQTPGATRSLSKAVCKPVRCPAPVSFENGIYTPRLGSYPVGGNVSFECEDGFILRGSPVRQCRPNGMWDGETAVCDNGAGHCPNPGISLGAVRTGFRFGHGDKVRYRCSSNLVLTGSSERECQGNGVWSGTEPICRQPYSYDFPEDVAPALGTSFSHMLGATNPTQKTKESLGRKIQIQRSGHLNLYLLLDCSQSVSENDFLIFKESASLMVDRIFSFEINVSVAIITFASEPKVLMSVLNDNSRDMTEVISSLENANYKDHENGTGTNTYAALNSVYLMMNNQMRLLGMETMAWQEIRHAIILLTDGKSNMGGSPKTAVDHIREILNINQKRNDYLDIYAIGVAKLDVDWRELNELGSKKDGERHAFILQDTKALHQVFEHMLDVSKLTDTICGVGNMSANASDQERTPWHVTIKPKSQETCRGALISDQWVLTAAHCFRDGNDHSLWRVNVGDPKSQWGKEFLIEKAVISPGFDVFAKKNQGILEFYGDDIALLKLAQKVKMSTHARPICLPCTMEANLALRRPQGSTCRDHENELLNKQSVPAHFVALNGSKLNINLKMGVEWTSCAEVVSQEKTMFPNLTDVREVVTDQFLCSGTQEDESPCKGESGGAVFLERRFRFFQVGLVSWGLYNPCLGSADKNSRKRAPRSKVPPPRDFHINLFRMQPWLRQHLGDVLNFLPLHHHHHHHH

B1: RF16-214 (antibody, V domains shown)
VH: EVQLLESGGGLVQPGGSLRLSCAASGFTFSWYQMMWVRQAPGKGLEWVSRIYPSGGGTAYADSVKGRFTISRDNSKNTLYLQMNSLRAEDTAVYYCARDAGYGDNWGQGTLVTVSS
VL: QSALTQPPSVSVSPGQTASITCSGDKLGEKYASWYQQKAGQSPVMVIYQDRKRPSGIPERFSGSNSGNTATLTISGTQAMDEADYYCQAWDTRAVVFGGGTKLTVLG
B1: the Fold diff is 1 fold with human C2 I438A, 1 fold in the assay with human C2 K415A, 5 fold with human C2 S456A and 0 fold with human C2 G414A.
